Experiment: soluble on expression in E. coli; label from the status in PepcDB or PDB records

Sequence | soluble on expression in E. coli
MVLKERHKKICLLPSYSRLAHYPGLLMLTTLIYRSHIRGDEPVKKIEEMVSIANRRNMRSDVTGILLFNGSHFFQLLEGPEEQVQMIYRAICQDPRHYNIVELLCDYAPARRFGKAGMELFDLRLHERDDVLQAVFDKGTSKFQLTYDDRALQFFRTFVLATEQSTYFEIPAEDSWLFIADGSDKELDSCTLSSNINDHFAFHPIVDPLSRRIIAFEAIVQKNEDSPSAIAVGQRKDEEIYTADLKSKALAFAMAHALKLGDKMISINLLPMTLVNKPDAVSFLLDEIKANALVPEQIIVEFTESEVISRFDEFAEAVKSLKAAGISVAIDHFGAGFAGLLLLSRFQPDRIKISQELITNVHKSGPRQAIIQAIMKCCTSLEIQVSAMGVATPEEWMWLESAGIEMFQGDLFSKAKLNGIPSVAWPEKK | not soluble
MVMEYLVLEKRLKRLREVLEKRQKDLIVFADNVKNEHNFSAIVRTCDAVGVLYLYYYHAEGKKAKINEGITQGSHKWVFIEKVDNPVQKLLEFKNRGFQIVATWLSKESVNFREVDYTKPTVLVVGNELQGVSPEIVEIADKKIVIPMYGMAQSLNVSVATGIILYEAQRQREEKGMYSRPSLSEEEIQKILKKWAYEDVIKERKRTLSTS | soluble
MVMIMRICIQPVGDVNDEILKFLKKKFGEVFGMCEILPKIDIPIYAYNFSRGQFNSTLILKSLPTVEDIVLGVTEVDIYADNLNFVFGEAELFGKRALISLARLRPEFYGLPPNKDVLKIRALKEAIHEIGHVLGLIHCENKRCVMSFSNSIIDVDLKDWRYCKKCLKKLQDRGIYISILEHHHHHH | not soluble
MVMSSEGGEDRWVFGYGSLMWRPGFPFIDRRTAVLHGRRRAFCIYSVHHRGTYERPGLVLGLAPGGSVRGMAYRVAAAEWEGVYAYLREREQPTETYFETWREVKVDGGDKAPALVFLSDMKHSQWAGDLTLEQQAALIAGAVGLSGPNIDYLRDLVMHLHEDGVRDHAMEKLLKMVEAREAALEHHHHHH | not soluble
MVNEYKKILLLKGFELMDDYHFTSIKSLLAYDLGLTTKMQEEYNRIKITDLMEKKFQGVACLDKLIELAKDMPSLKNLVNNLRKEKSKVAKKIKTQEKAPVKKINQEEVGLAAPAPTARNKLTSEARGRIPVAQKRKTPNKEKTEAKRNKVSQEQSKPPGPSGASTSAAVDHPPLPQTSSSTPSNTSFTPNQETQAQRQVDARRNVPQNDPVTVVVLKATAPFKYESPENGKSTMFHATVASKTQYFHVKVFDINLKEKFVRKKVITISDYSECKGVMEIKEASSVSDFNQNFEVPNRIIEIANKTPKISQLYKQASGTMVYGLFMLQKKSVHKKNTIYEIQDNTGSMDVVGSGKWHNIKCEKGDKLRLFCLQLRTVDRKLKLVCGSHSFIKVIKAKKNKEGPMNVN | soluble
MVNNEYQQLNTLVESDDEADLVIANLVKQLNELKQILVSLDNQEASATAVTDKKEEEYNQNQSSFHNFSKETLQKQAKRGFLLLERCSLVGLQQLELEYVNLLGRSFDSYQQKTELLNNLKELVDEHFSDTEKIINTLEKIFDVIGGSEYTPVLNSFFNKLLSDPDPIQREIGLRQFIITLRQRFKKLSQKIDSSLKQIETEAKIATEQVQNSEVMFGPPDIANDHELNLNWPDSETDAILSSMENELEAALLAKHQEEPPLIVTPPSLIKPTVSQPEVEVVTPTNNTNFQPQVDLKPTDLKKQQKKKPLNFITRPVFKSNLPPKLSKDDIVHYAHQLLEKNTHNE | soluble
MVPESHPRYKSLLNRDRIVEAFESGVLAKGGMIAHGRGETFDYLIGESTTDAALNSIKVSAALLVLAENPVISVNGNSVALAKDEFVELAKELNGKIEVNLFYRTTEREEKIKDVFESDINGGIVLLGIDNADKQIPGIDHLRGKVSESGIYTSDVVLVPLEDGDRAEALVKMGKTVIAIDLNPLSRTARKSTISIIDELTRCIPLITEYVREYKKMDRAELLKIVENYDNEENLRNILNLISKRLTSVDLEHHHHHH | soluble
MVQEAPAALPTEPGPSPVPAFLGKLWALVGDPGTDHLIRWSPSGTSFLVSDQSRFAKEVLPQYFKHSNMASFVRQLNMYGFRKVVSIEQGGLLRPERDHVEFQHPSFVRGREQLLERVRRKVPALRGDDGRWRPEDLGRLLGEVQALRGVQESTEARLRELRQQNEILWREVVTLRQSHGQQHRVIGKLIQCLFGPLQAGPSNAGGKRKLSLMLDEGSSCPTPAKFNTCPLPGALLQDPYFIQSPLPETNLGLSPHRARGPIISDIPEDSPSPEGTRLSPSSDGRREKGLALLKEEPASPGGDGEAGLALAPNECDFCVTAPPPLPVAVVQAILEGKGSFSPEGPRNAQQPEPGDPREIPDRGPLGLESGDRSPESLLPPMLLQPPQESVEPAGPLDVLGPSLQGREWTLMDLDMELSLMQPLVPERGEPELAVKGLNSPSPGKDPTLGAPLLLDVQAALGGPALGLPGALTIYSTPESRTASYLGPEASPSP | soluble
MVQISDLPRDLTEEVLSRIPVTSMRAVRFTCKKWNTLSKDRSFTKKHLRGARAAAKKKQTKEFQVIMMIQFRVYLYSVNLLNPSIERIGKLISLDVEDHVDISKIFHCGGLLLCITKDISRLVVWNPYSGQTRWIKPRNSYHRLDRYALGYEEKNKSCRCYKILRFMDDYEDDRALRLIREFEIYDLNSDSWKVVNVTPDWDVEFYHRGLSLKGNTYWFAQEKLPPLPRGRVITISDMADFLLCFDFTRERFGPRLPLPFHSFVEDTVTLSSVRDKKLAVLFQPCSASTVKIWISRKIEPNAVSWRKVFLAVDMKSLTGFQFDINAASFFVDEKKKVAMVLDKDRFSYKFTRNIAYIIGKKGYFEKVDLGESTVSSCASLVCSYVPSSVQI | soluble
MVQLFSAFDRETIERNLQEEKFDLVIVGGGITGAGIALDATSRGMSVALVEMGDFASGTSSRSTKLVHGGLRYLQQFEIKEVADLGKERAIVYENGPHVTTPEWMMLPFHKGGNMGKTTASFGIRLYDYLAGVKKNERRKILSAKETLAKNPFVKKDGLKGSGYYVEYRTDDARLTIEVMKKAVELGANAINYTKAEHFLYDDKKQVVGVTVTDRLTGKAYDIKGHRVINAAGPWVDKVRKLDYATNNKHLRLTKGIHLVIDKQKFPMEQAVYFDTPDGRMVFAIPRDKKVYVGTTDTVYDEAVINPKALESDHNYVIKAINYMFPDVHISEKDIESSWAGVRPLIYEEGKDPSEISRKDEVWFSESGLITMAGGKLTGYRKMAEKLLDGVSKTLSKETGKKYKPVQTKHLPISGGDIGGSEQLEAFLSKKAKEGNNRFGWTLEEGREIAKRFGSNIDQLFTYAQEHKDQNETTLPNSLYAELRYSIQHEAVTTPIDFLLRRTGYLLFDMPYLLEWKDAVVDEMAKQFHWSDDVKQTYIEELNIQINDAREPADWHDRLEHHHHHH | soluble
MVQREKARDNFEGGCLAELIGSPRDWKCFLAVPDPLLGVQHWLHLWRPQTKDGNSLHRHGDQAWGKHRRQNSLKSPALSGHSIDYHFYPRLRCGMLIGPDKQAVASGLEVLVTSSTKILGQLFPDAAHFLEEASEFKAE | soluble
MVRPEDFNSLELDNSLTDGETVHEMMAHKAGLTYNDFNILPGFINFGVHDVSLETNITKDLKIKAPLVSSPMDTVTESGMAIVMALYGGIGIIHGNFPKPEDQAAEVLKVKRFKQGYVMQPHCLSRDSTAFDMIQIKKKYGYTGAPVTEDGRVGSKLIGMVTSRDFDFITMDVAGQKGTPISDTNDVTPTTPITRIMVSVDQLHLGHINDAPELSQKKLKEHRLGKLPIVNDNGELCALLCRSDLLKARDYPMASYDSKGQLLCGAAVNTRGESQYTVDRVVEAGVDVLIIDSSNGSSTYQISMLRYIKEKHPHVQVIAGNVVTRAQAKLLIDQGADGLRIGMGSGSICITQDVMAVGRAQGTAVYDVARYANQRGIPIVADGGIRDVGYITKAISLGASAVMMGGLLAATTEAPGEYFWGPGGVRVKKYRGMGSLDAMEAHASSQDRYFTAHVFFSILSYF | not soluble
MVRTYSPAFREAAVRMMISHREEYKCSRWAAAVAISEKIGASPNSIYAWFKKSTFETIESDDFDLAYYKERIERLESEIQRLQKTIKFLRTTIIILSNSLHFG | not soluble
MVRVKICGITNLEDALFSVESGADAVGFVFYPKSKRYISPEDARRISVELPPFVFRVGVFVNEEPEKILDVASYVQLNAVQLHGEEPIELCRKIAERILVIKAVGVSNERDMERALNYREFPILLDTKTPEYGGSGKTFDWSLILPYRDRFRYLVLSGGLNPENVRSAIDVVRPFAVDVSSGVEAFPGKKDHDSIKMFIKNAKGL | soluble
MVSNSSITFKEFVDYWFEAYASTAVKPSTQKRYRQLLKPALRAIGNKPLNKVKPLDIQNIYIALAGTQSNCTILKLHRLLHEIFKHAQMWEYISDNPVKKVVPPTPEKKVFDLEHHHHHH | not soluble
MVSQIGLLLPLSGDGQILGTTIQSGFNDAKGNSTIPVQVFDTSMNSVQDIIAQAKQAGIKTLVGPLLKQNLDVILADPAQIQGMDVLALNATPNSRAIPQLCYYGLSPEDEAESAANKMWNDGVRNPLVAMPQNDLGQRVGNAFNVRWQQLAGTDANIRYYNLPADVTYFVQENNSNTTALYAVASPTELAEMKGYLTNIVPNLAIYASSRASASATNTNTDFIAQMNGVQFSDIPFFKDTNSPQYQKLAKSTGGEYQLMRLYAMGADAWLLINQFNELRQVPGYRLSGLTGILSADTNCNVERDMTWYQYQDGAIVPVVDHHHHHH | soluble
MVSRKRRAAQIESSRKGVASIRARCDMEASCSSSQENEASRASTSQCSSPKNLKMENVTILPKTLKLIHDDPKSQVIVSIQFEIEDTKKKISAAILNFNISKKANNAIRSERKRIVATILKTRKHVERFRRLWKKEKKKKEHSEILYKKSQLSKQETIAKFPPMFR | not soluble
MVSVSEIRKAQRAEGPATILAIGTANPANCVEQSTYPDFYFKITNSEHKTELKEKFQRMCDKSMIKRRYMYLTEEILKENPNVCEYMAPSLDARQDMVVVEVPRLGKEAAVKAIKEWGQPKSKITHLIVCTTSGVDMPGADYQLTKLLGLRPYVKRYMMYQQGAFAGGTVLRLAKDLAENNKGARVLVVCSEVTAVTFRGPSDTHLDSLVGQALFGDGAAALIVGSDPVPEIEKPIFEMVWTAQTIAPDSEGAIDGHLREAGLTFHLLKDVPGIVSKNITKALVEAFEPLGISDYNSIFWIAHPGGPAILDQVEQKLALKPEKMNATREVLSEYGNMSSACVLFILDEMRKKSTQNGLKTTGEGLEWGVLFGFGPGLTIETVVLRSVAI | soluble
MVTMALDSVTIEVIRNSAIYISEEMGVVLRDTAFSPNIKDRLDHSCAVLAPDGSLVAQAEHIPVHLGSMSVGVVNLVKYIEDLGMDLGVGDVVVTNDPYISGTHLNDLMAIKPVYAGDFHIAYVANKAHHVDVGGLVPGSIGGGAKELREEGIVIEPVKVVEAGSVRWDIVRMLEANVRTPRYFRGDLMAQIASLNVGEARLRELAGRYGGSALVEAWESILGYTERYTREKIGEVAALASGVYRARDYMETSKGELLEIVATLTIDKGRLTVDYTGTSKQVDEPINAVYGVTVAATLFALKSTLDPEMPMNQGFFRIVEIKAPEGTLVNPLKPAPVGGGNVETSQRIADVVFRALAEALPERVPAASCGTMSNVMVGGRGWAFYETNACGSGARPCCDGVDGVHTNMTNTLNTPIEVIEREYPILFNAYELRPDSGGPGMYRGGLGVVRAFTALEDNVTITIFAERGLTRPWGLSGGRPGRSFEAVITRAAGEVERLMSKHTAKLNRGDTIAIYTPGGGGYGDPCKRDRSLIERDLREGRITMESAVKDYCYDS | not soluble
MVTREEFVARFGGVFEHSPFIAERAYDAGGAGLELTAKAVHGALCAQFRVASEAERLGVLRAHPDLAGKLAIAGELTADSRNEQAGAGLDRLSPQEHARFTQLNSAYTEKFGFPFIIAVKGLNRHDILSAFDTRIDNNAAQEFATATGQVEKIAWLRLASMLPEGLEHHHHHH | soluble

From the DeepSol protein solubility set
